# Source: US20210380703A1 (RIGEL PHARMACEUTICALS, published 2021)
# Assays:
# Human ACVR2A = molecular target: T1, Human ACVR2A (human, UniProt P27037 20-135, limits assumed); assay: ELISA
# T1 construct: also called activin receptor, type II A
# Procedure: (§1) The binding of ACVR2A-specific monoclonal antibodies to human ACVR2A, mouse ACVR2A, biotinylated goat anti-human kappa light chain (positive control) and human Fc (negative control) were determined by ELISA.
# Mouse ACVR2A = Mouse ACVR2A (mouse, UniProt P27038 20-135, limits assumed); assay: ELISA
# Chain of Mouse ACVR2A (P27038 20-135 limits assumed): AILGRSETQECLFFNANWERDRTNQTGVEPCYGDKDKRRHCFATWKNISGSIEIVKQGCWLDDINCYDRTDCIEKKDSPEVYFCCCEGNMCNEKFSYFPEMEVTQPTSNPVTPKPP
# Procedure: as §1
# Goat anti-Human Kappa = molecular target: T2, Goat anti-Human Kappa; assay: ELISA; positive control
# T2 construct: Positive control; also called biotinylated goat anti-human kappa light chain
# Procedure: as §1
# Further: test concentration or dose not given here.
# T1 sequence (P27037 20-135 limits assumed): as the sequence (P27038 20-135 limits assumed) above, with R20K, I73V counted along it
optical density (Human ACVR2A) [OD],optical density (Mouse ACVR2A) [OD],optical density (Goat anti-Human Kappa) [OD],Binder
2.14,2.23,3.42,"365_F05 (antibody, V domains shown, VH/VL only) VH: EVQLLESGGGLVQPGGSLRLSCAASGFTFSSYGMNWVRQAPGKGLEWVASINYNGGYTSYADSVKGRFTISRDNSKNTLYLQMNSLRAEDTAVYYCARGATWHDTHLDYWGQGTLVTVSS VL: DIQMTQSPSSLSASVGDRVTITCRASQSIVTYVNWYQQKPGKAPKLLIYAATSRASGVPSRFSGSGSGTDFTLTISSLQPEDFATYYCQQSYETPLTFGGGTKVEIK"
2.1,2.19,3.46,"365_H05 (antibody, V domains shown, VH/VL only) VH: EVQLLESGGGLVQPGGSLRLSCAASGFTFSSYGMNWVRQAPGKGLEWVAGINYNGGYTSYADSVKGRFTISRDNSKNTLYLQMNSLRAEDTAVYYCARGATWHDTHLDYWGQGTLVTVSS VL: DIQMTQSPSSLSASVGDRVTITCRASQSILTYVNWYQQKPGKAPKLLIYAATSLHSGVPSRFSGSGSGTDFTLTISSLQPEDFATYYCQQSYSTPLTFGGGTKVEIK"
3.24,2.99,3.44,"366_B12 (antibody, V domains shown, VH/VL only) VH: EVQLLESGGGLVQPGGSLRLSCAASGFTFSSYSMNWVRQAPGKGLEWVAGINYNSGYKGYADSVKGRFTISRDNSKNTLYLQMNSLRAEDTAVYYCARSANWHDTALDYWGQGTLVTVSS VL: DIQMTQSPSSLSASVGDRVTITCRASQSILTYVNWYQQKPGKAPKLLIYAATSRASGVPSRFSGSGSGTDFTLTISSLQPEDFATYYCQQSYDNPLTFGGGTKVEIK"
2.48,2.65,3.45,"365_G01 (antibody, V domains shown, VH/VL only) VH: EVQLLESGGGLVQPGGSLRLSCAASGFTFDSYGMNWVRQAPGKGLEWVAGINYNSGYKSYADSVKGRFTISRDNSKNTLYLQMNSLRAEDTAVYYCARSANWHDTALDYWGQGTLVTVSS VL: DIQMTQSPSSLSASVGDRVTITCRASQSILTYVNWYQQKPGKAPKLLIYATTSRASGVPSRFSGSGSGTDFTLTISSLQPEDFATYYCQQSYDSPLTFGGGTKVEIK"
3.24,3.35,3.61,"365_H11 (antibody, V domains shown, VH/VL only) VH: EVQLLESGGGLVQPGGSLRLSCAASGFTFSSYSMNWVRQAPGKGLEWVSGINYNSGYTGYADSVKGRFTISRDNSKNTLYLQMNSLRAEDTAVYYCARSANWHDTALDYWGQGTLVTVSS VL: DIQMTQSPSSLSASVGDRVTITCRASQSILTYLNWYQQKPGKAPKLLIYAATSRASGVPSRFSGSGSGTDFTLTISSLQPEDFATYYCQQSYDSPLTFGGGTKVEIK"
2.68,2.82,3.51,"365_H10 (antibody, V domains shown, VH/VL only) VH: EVQLLESGGGLVQPGGSLRLSCAASGFTFDSYGMNWVRQAPGKGLEWVAGINYNSGYKSYADSVKGRFTISRDNSKNTLYLQMNSLRAEDTAVYYCARSANWHDTHLDYWGQGTLVTVSS VL: DIQMTQSPSSLSASVGDRVTITCRASQSIVTYVNWYQQKPGKAPKLVIYAATSLASGVPSRFSGSGSGTDFTLTISSLQPEDFATYYCQQSYNTPLTFGGGTKVEIK"
2.38,2.7,3.51,"365_E07 (antibody, V domains shown, VH/VL only) VH: EVQLLESGGGLVQPGGSLRLSCAASGFTFDSYGMHWVRQAPGKGLEWVSGINYNSGYTSYADSVKGRFTISRDNSKNTLYLQMNSLRAEDTAVYYCAKSANWHDTHLDYWGQGTLVTVSS VL: DIQMTQSPSSLSASVGDRVTITCRASQSILSYLNWYQQKPGKAPKLLIYAATSRASGVPSRFSGSGSGTDFTLTISSLQPEDFATYYCQQSYDNPLTFGGGTKVEIK"

# Continued, binder first:
Binder,optical density (Human ACVR2A) [OD],optical density (Mouse ACVR2A) [OD],optical density (Goat anti-Human Kappa) [OD]
"365_E01 (antibody, V domains shown, VH/VL only) VH: EVQLLESGGGLVQPGGSLRLSCAASGFTFSDYSMNWVRQAPGKGLEWVSGINYNSGYKGYADSVKGRFTISRDNSKNTLYLQMNSLRAEDTAVYYCARSANWHDTALDYWGQGTLVTVSS VL: DIQMTQSPSSLSASVGDRVTITCRASQSIISYLNWYQQKPGKAPKLLIYAATSRASGVPSRFSGSGSGTDFTLTISSLQPEDFATYYCQQSYDSPLTFGGGTKVEIK",2.91,2.84,3.54
"366_B08 (antibody, V domains shown, VH/VL only) VH: EVQLLESGGGLVQPGGSLRLSCAASGFTFDSYGMNWVRQAPGKGLEWVSNINYNGGYKGYADSVKGRFTISRDNSKNTLYLQMNSLRAEDTAVYYCARSANWHDTHLDYWGQGTLVTVSS VL: DIQMTQSPSSLSASVGDRVTITCRASQSIVSYLNWYQQKPGKAPKLLIYAATSRHSGVPSRFSGSGSGTDFTLTISSLQPEDFATYYCQQSYDNPLTFGGGTKVEIK",2.15,2.38,3.05
"366_B10 (antibody, V domains shown, VH/VL only) VH: EVQLLESGGGLVQPGGSLRLSCAASGFTFSSYGMNWVRQAPGKGLEWVSGINYNSGYTSYADSVKGRFTISRDNSKNTLYLQMNSLRAEDTAVYYCARSANWHDTALDYWGQGTLVTVSS VL: DIQMTQSPSSLSASVGDRVTITCRASQSIISYLNWYQQKPGKAPKLLIYAATSRASGVPSRFSGSGSGTDFTLTISSLQPEDFATYYCQQSYDNPLTFGGGTKVEIK",2.33,2.44,3.06
"365_G11 (antibody, V domains shown, VH/VL only) VH: EVQLLESGGGLVQPGGSLRLSCAASGFTFSSYGMNWVRQAPGKGLEWVANINYNGGYTGYADSVKGRFTISRDNSKNTLYLQMNSLRAEDTAVYYCARSANWHDTALDYWGQGTLVTVSS VL: DIQMTQSPSSLSASVGDRVTITCRASQSIITYVNWYQQKPGKAPKLLIYAVTSRHSGVPSRFSGSGSGTDFTLTISSLQPEDFATYYCQQSYNSPLTFGGGTKVEIK",1.75,1.78,3.47
"365_H06 (antibody, V domains shown, VH/VL only) VH: EVQLLESGGGLVQPGGSLRLSCAASGFTFSSYGMNWVRQAPGKGLEWVSGINYNSGYTGYADSVKGRFTISRDNSKNTLYLQMNSLRAEDTAVYYCARSANWHDTALDYWGQGTLVTVSS VL: DIQMTQSPSSLSASVGDRVTITCRASQSISSYVNWYQQKPGKAPKLLIYAATSRASGVPSRFSGSGSGTDFTLTISSLQPEDFATYYCQQSYSTPLTFGGGTKVEIK",2.24,2.46,3.44
"365_E09 (antibody, V domains shown, VH/VL only) VH: EVQLLESGGGLVQPGGSLRLSCAASGFTFSSYGMHWVRQAPGKGLEWVASINYNSGYKSYADSVKGRFTISRDNSKNTLYLQMNSLRAEDTAVYYCARSANWHDTALDYWGQGTLVTVSS VL: DIQMTQSPSSLSASVGDRVTITCRASQSILTYVNWYQQKPGKAPKLVIYAATSRASGVPSRFSGSGSGTDFTLTISSLQPEDFATYYCQQSDDSPLTFGGGTKVEIK",1.91,2.16,3.47
"365_H02 (antibody, V domains shown, VH/VL only) VH: EVQLLESGGGLVQPGGSLRLSCAASGFTFSDYGMNWVRQAPGKGLEWVSSINYNGGYTGYADSVKGRFTISRDNSKNTLYLQMNSLRAEDTAVYYCARSANWHDTHLDYWGQGTLVTVSS VL: DIQMTQSPSSLSASVGDRVTITCRASQSILTYLNWYQQKPGKAPKLLIYAATSRASGVPSRFSGSGSGTDFTLTISSLQPEDFATYYCQQSYENPLTFGGGTKVEIK",2.73,2.91,3.58
"365_E05 (antibody, V domains shown, VH/VL only) VH: EVQLLESGGGLVQPGGSLRLSCAASGFTFSSYGMHWVRQAPGKGLEWVAGINYNGGYTSYADSVKGRFTISRDNSKNTLYLQMNSLRAEDTAVYYCARSANWHDTALDYWGQGTLVTVSS VL: DIQMTQSPSSLSASVGDRVTITCRASQSIVSYVNWYQQKPGKAPKLLIYAATSLASGVPSRFSGSGSGTDFTLTISSLQPEDFATYYCQQSYDNPLTFGGGTKVEIK",2.18,2.44,3.36
"365_F06 (antibody, V domains shown, VH/VL only) VH: EVQLLESGGGLVQPGGSLRLSCAASGFTFSSYGMNWVRQAPGKGLEWVAGINYNSGYKSYADSVKGRFTISRDNSKNTLYLQMNSLRAEDTAVYYCARSANWHDTALDYWGQGTLVTVSS VL: DIQMTQSPSSLSASVGDRVTITCRASQSILSYVNWYQQKPGKAPKLLIYAATSRASGVPSRFSGSGSGTDFTLTISSLQPEDFATYYCQQSDNLPLTFGGGTKVEIK",1.95,2.08,3.4
"365_F12 (antibody, V domains shown, VH/VL only) VH: EVQLLESGGGLVQPGGSLRLSCAASGFTFSDYSMNWVRQAPGKGLEWVSGINYNGGYTSYADSVKGRFTISRDNSKNTLYLQMNSLRAEDTAVYYCARSANWHDTHLDYWGQGTLVTVSS VL: DIQMTQSPSSLSASVGDRVTITCRASQSILTYVNWYQQKPGKAPKLVIYAATSRHSGVPSRFSGSGSGTDFTLTISSLQPEDFATYYCQQSYETPLTFGGGTKVEIK",2.91,2.83,3.63
"365_H12 (antibody, V domains shown, VH/VL only) VH: EVQLLESGGGLVQPGGSLRLSCAASGFTFSSYSMNWVRQAPGKGLEWVSNINYNGGYKSYADSVKGRFTISRDNSKNTLYLQMNSLRAEDTAVYYCARSANWHDTHLDYWGQGTLVTVSS VL: DIQMTQSPSSLSASVGDRVTITCRASQSIITYVNWYQQKPGKAPKLLIYAATSRASGVPSRFSGSGSGTDFTLTISSLQPEDFATYYCQQSYSTPLTFGGGTKVEIK",2.97,2.91,3.78
"365_E11 (antibody, V domains shown, VH/VL only) VH: EVQLLESGGGLVQPGGSLRLSCAASGFTFDDYSMNWVRQAPGKGLEWVSSINYNGGYKSYADSVKGRFTISRDNSKNTLYLQMNSLRAEDTAVYYCARGATWHDTHLDYWGQGTLVTVSS VL: not shown",1.74,1.74,3.57
